Test [1] has as its target MIF receptor CD74 ectodomain (CD74 73-232, sCD74) (UniProt P04233). Put plainly: competition binding assay on sCD74 with biotinylated human MIF as the competed ligand [panel A].
Test [2] shares this target. In words: competition binding assay on sCD74, biotinylated human MIF as competitor.
For test [3] the target is unchanged. In words: SPR (BIAcore 2000), sCD74 immobilized. Background: Surface plasmon resonance follows binding to a sensor surface in real time, without labels.
Test [4] has the same target. In words: SPR (BIAcore 2000), sCD74 immobilized, ligand in solution.

By koff is commonly meant the rate constant with which the complex falls apart. High values mean fast dissociation, low ones slow dissociation. One may read the kon as a measure of how fast the partners come together. A word on the Kd: it is a measure of binding affinity in units of concentration. Higher therefore signals a looser complex. The substance “human D-dopachrome tautomerase (D-DT), recombinant native-sequence protein (from UniProt P30046 2-118) (ligand)” registered an IC50 (read off the curve) in test [1] of 300 nM. In test [2], this substance yielded a maximal effect on MIF binding compared with MIF of 50%. For the same substance, in test [3], the affinity relative to MIF (% lower than MIF) was 60, the fold higher binding rate than MIF worked out at 3 fold, the off-rate (koff) was determined as 0.00066 s⁻¹ and the on-rate constant (kon) stood at 120000 M⁻¹ s⁻¹. For the same substance, in test [4], the Kd was 5.42 nM.

The record behind these values is patent US20140030266A1.
